Results published in patent US8173604 (ALBERT EINSTEIN COLLEGE OF MEDICINE OF YESHIVA UNIVERSITY, dated 2012).

Columns and labels:
[1] = target: T1, insect cell-produced and purified GST-cyclin A/Cdk2 (kinase reactions, ~3 nM) (UniProt P20248 1-432; P24941 1-298); test: cell-based or functional assay
[2] = target: T1, insect cell-produced and purified …; test: kinase inhibition: purified proteins, ~3 nM GST-cyclin A/Cdk2, Rb-C phosphorylation, non-linear least squares (FIG. 7F)
[3] = target: T2, cyclin A 309-432 fragment (C-terminal cyclin-fold and the C-terminus) (UniProt P20248 309-432); test: GST pull-down with transfected 293T extracts (FIG. 4C)
T2 construct: In transfected 293T cell extract; not shown: myc tag

[4] = target: cyclin D1/Cdk4 (transfected 293T cell extracts) (UniProt P24385 1-295; P11802 1-303); test: GST pull-down with transfected 293T extracts (FIG. 4E)
[5] = target: Cdk2 alone (singly transfected 293T cell extract) (UniProt P24941 1-298); test: GST pull-down with singly transfected 293T extracts (FIG. 4A)
[6] = target: myc-cyclin A/Cdk2 (293T cell extracts transfected with myc-cyclin A and Cdk2) (UniProt P20248 1-432; P24941 1-298); test: GST pull-down with myc-cyclin A/Cdk2 transfected 293T extracts (FIG. 3C)
[7] = target: cellular cyclin A (endogenous, U2OS cells; associated with Cdk2) (human, UniProt P20248 1-432); test: cell-based or functional assay
[8] = target: T3, myc tagged cyclin A (expressed alone or cotransfected in 293T cells) (UniProt P20248 1-432); test: cotransfection, IP-Western in 293T cells (FIG. 1A)
T3 construct: domain: full-length; also called myc-cyclin A; cyclin A alone; not shown: myc tag

[9] = target: T3, myc tagged cyclin A (expressed alone or …); test: IP-Western with transfected 293T cell extracts (FIG. 1E)
[10] = target: T4, Skp1, Cul-1 and myc-Roc1 (SCF subunits co-expressed with flag-Skp2 in 293T cells) (UniProt P63208 1-163; Q13616 1-776; P62877 1-108); test: co-expression in 293T cells, anti-flag IP-Western (FIG. 2A)
T4 construct: The three other subunits of the SCF complex, co-immunoprecipitated via the flag tag on Skp2; also called Skp1-Cul1-Roc1; SCF^Skp2Roc1 complex subunits; not shown: myc tag
T4 sequence (P63208 whole entry, chain 1 of 3): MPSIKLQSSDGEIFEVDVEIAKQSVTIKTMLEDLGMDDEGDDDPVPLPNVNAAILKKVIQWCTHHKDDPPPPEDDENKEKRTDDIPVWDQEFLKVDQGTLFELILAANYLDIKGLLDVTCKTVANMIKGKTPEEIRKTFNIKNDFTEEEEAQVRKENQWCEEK
T4 sequence (Q13616 whole entry, chain 2 of 3): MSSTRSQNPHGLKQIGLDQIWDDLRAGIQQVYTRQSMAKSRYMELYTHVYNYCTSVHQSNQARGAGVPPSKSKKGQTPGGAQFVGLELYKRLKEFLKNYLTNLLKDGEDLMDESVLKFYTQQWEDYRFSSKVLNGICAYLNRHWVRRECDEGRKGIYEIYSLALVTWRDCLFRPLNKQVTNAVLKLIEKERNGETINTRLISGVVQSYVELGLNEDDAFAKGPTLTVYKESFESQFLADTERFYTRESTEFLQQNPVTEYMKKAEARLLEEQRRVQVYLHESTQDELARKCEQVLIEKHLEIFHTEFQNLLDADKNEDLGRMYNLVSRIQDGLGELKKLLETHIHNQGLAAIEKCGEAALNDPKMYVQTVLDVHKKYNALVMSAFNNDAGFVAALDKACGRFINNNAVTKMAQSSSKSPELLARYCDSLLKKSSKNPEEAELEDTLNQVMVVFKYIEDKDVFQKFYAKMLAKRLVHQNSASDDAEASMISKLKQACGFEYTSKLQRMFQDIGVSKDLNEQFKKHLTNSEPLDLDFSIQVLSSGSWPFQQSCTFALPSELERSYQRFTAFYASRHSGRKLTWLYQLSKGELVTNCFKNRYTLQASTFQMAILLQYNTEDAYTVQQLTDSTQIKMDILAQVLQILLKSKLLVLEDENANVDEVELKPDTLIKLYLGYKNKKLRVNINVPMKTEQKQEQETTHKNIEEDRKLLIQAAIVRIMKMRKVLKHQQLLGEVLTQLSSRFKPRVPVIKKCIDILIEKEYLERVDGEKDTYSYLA
T4 sequence (P62877 whole entry, chain 3 of 3): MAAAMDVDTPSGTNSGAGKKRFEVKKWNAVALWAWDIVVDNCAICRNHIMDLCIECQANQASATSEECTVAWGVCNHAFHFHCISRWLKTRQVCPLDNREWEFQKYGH

Chain of cyclin D1/Cdk4 (transfected 293T cell extracts) (P24385 whole entry, chain 1 of 2): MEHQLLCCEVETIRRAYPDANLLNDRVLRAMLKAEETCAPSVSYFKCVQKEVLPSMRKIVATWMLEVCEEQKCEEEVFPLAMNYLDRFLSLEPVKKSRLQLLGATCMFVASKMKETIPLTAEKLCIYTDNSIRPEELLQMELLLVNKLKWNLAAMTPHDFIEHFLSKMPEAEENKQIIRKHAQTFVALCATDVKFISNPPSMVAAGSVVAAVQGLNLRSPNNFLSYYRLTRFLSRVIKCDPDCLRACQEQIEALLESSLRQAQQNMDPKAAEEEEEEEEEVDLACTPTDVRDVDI
Chain of cyclin D1/Cdk4 (transfected 293T cell extracts) (P11802 whole entry, chain 2 of 2): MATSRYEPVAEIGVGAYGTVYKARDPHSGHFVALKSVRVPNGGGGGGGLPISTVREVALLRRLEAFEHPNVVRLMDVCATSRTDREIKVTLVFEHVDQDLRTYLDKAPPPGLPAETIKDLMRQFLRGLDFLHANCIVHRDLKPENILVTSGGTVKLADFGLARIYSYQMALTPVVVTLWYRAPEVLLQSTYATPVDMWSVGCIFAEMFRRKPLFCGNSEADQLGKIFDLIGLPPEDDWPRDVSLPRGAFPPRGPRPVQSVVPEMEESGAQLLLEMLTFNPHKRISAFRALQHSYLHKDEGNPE

B1: Skp2N (eluted, GST cleaved off by thrombin) (other)
chain: MHVFKTPGPADAMHRKHLQEIPDLSSNVATSFTWGWDSSKTSELLSGMGVSALEKEEPDSENIPQELLSNLGHPESPPRKRLKSKGSDKDFVIVRRPKLN
notes: also called eluted and GST cleaved Skp2N; Skp2 N-terminus
Ki of p27 for cyclin A/Cdk2 kinase activity (Rb-C phosphorylation) in the presence of 80 nM of Skp2N [1]: ~0.08 µM | Ki [2]: ~0.52 µM

B2: GST-Skp2N (Skp2 N-terminus cloned into pGEX-2T) (other)
chain: MHVFKTPGPADAMHRKHLQEIPDLSSNVATSFTWGWDSSKTSELLSGMGVSALEKEEPDSENIPQELLSNLGHPESPPRKRLKSKGSDKDFVIVRRPKLN
notes: not shown: glutathione S-transferase (GST) moiety of vector pGEX-2T, N-terminal fusion partner
binding result [3]: no binding | binding result [4]: no binding | binding result [5]: no binding

B3: GST-Skp2N-AAA53 (other)
chain: MHVFKTPGPADAMHRKHLQEIPDLSSNVATSFTWGWDSSKTSELLSGMGVAAAEKEEPDSENIPQELLSNLGHPESPPRKRLKSKGSDKDFVIVRRPKLN
notes: Residue 52 is already alanine; not shown: glutathione S-transferase (GST) moiety of vector pGEX-2T, N-terminal fusion partner
binding result [6]: no binding

B4: GST-Skp2N-AA45 (other)
chain: MHVFKTPGPADAMHRKHLQEIPDLSSNVATSFTWGWDSSKTSEAASGMGVSALEKEEPDSENIPQELLSNLGHPESPPRKRLKSKGSDKDFVIVRRPKLN
notes: as for B2
binding result [6]: no binding

B5: TAT-4060 peptide (HIV TAT domain fused to the 4060 peptide with a glycine linker) (peptide)
peptide: YGRKKRRQRRRGKTSELLSGMGVSALEKEE
IC50 of U2OS cell killing (MTS assay, 24 hours) [7]: 35 µM

B6: Skp2NF (N-terminal fragment of Skp2 divided at residue 150) (other)
chain: MHVFKTPGPADAMHRKHLQEIPDLSSNVATSFTWGWDSSKTSELLSGMGVSALEKEEPDSENIPQELLSNLGHPESPPRKRLKSKGSDKDFVIVRRPKLNRENFPGVSWDSLPDELLLGIFSCLCLPELLKVSGVCKRWYRLASDESLWQ
notes: also called NF fragment
binding result [8]: binds

B7: Skp2AAAA (full-length Skp2 with the four conserved residues of the 40-60 sequence mutated to alanine, flag tagged) (other)
chain: MHVFKTPGPADAMHRKHLQEIPDLSSNVATSFTWGWDSSKTSEAASGMGVAAAEKEEPDSENIPQELLSNLGHPESPPRKRLKSKGSDKDFVIVRRPKLNRENFPGVSWDSLPDELLLGIFSCLCLPELLKVSGVCKRWYRLASDESLWQTLDLTGKNLHPDVTGRLLSQGVIAFRCPRSFMDQPLAEHFSPFRVQDMDLSNSVIEVSTLHGILSQCSKLQNLSLELRLSDPIVNTLAKNSNLVRLNLPGCPGFPKFPLQTFLSSCPRLDELNLSWCFNFTEKHVQVAVAHVSETMTQLNLSGYRKNLQKSDLSTLVRRCPNLVHLDLSNSVMLKNDCFQEFSQLNYLQHLSLSRCYDIIPETLLELGEIPTLKTLQVFGIVPDGTLQLLKEALPHLQINCSHFTTIARPTIGNKKNQEIWGIKCRLTLQKPSCL
notes: also called Skp2AAAA mutant; flag tagged Skp2AAAA; not shown: flag tag
binding result [9]: no binding | binding result [10]: binds

B8: Skp2LRR (C-terminal fragment of Skp2 divided at residue 150) (other)
chain: TLDLTGKNLHPDVTGRLLSQGVIAFRCPRSFMDQPLAEHFSPFRVQDMDLSNSVIEVSTLHGILSQCSKLQNLSLELRLSDPIVNTLAKNSNLVRLNLPGCPGFPKFPLQTFLSSCPRLDELNLSWCFNFTEKHVQVAVAHVSETMTQLNLSGYRKNLQKSDLSTLVRRCPNLVHLDLSNSVMLKNDCFQEFSQLNYLQHLSLSRCYDIIPETLLELGEIPTLKTLQVFGIVPDGTLQLLKEALPHLQINCSHFTTIARPTIGNKKNQEIWGIKCRLTLQKPSCL
notes: also called LRR fragment
binding result [8]: no binding

B9: TAT-LDL peptide (TAT fused to the E2F1-derived LDL peptide) (peptide)
peptide: YGRKKRRQRRRGPVKRRLDL
in vitro cyclin A/Cdk2 kinase activity towards GST-Rb-C [1]: 10 fold | IC50 of U2OS cell killing (MTS assay, 24 hours) [7]: 7.5 µM
